Experimental data published in article PMC6331917.

System: NS5BΔ21 (viral RNA-dependent RNA polymerase) (Hepatitis C virus)
Experiment: competition (filter binding)
Conditions: 5 mM HEPES pH 7.9, 2 mM MgCl2, 25 mM KCl, 37 °C, 30 min; nitrocellulose dot-blot filter binding. Aptamer:CRE Kd values (Table 2) are RNA-RNA and not listed.

Work on HCV-CRE194 yielded a binding signal of 75.4 % complex.
